Biological target: porcine trypsin (porcine, UniProt P00761 9-231)
Test: cell-based or functional assay

Chain of porcine trypsin (P00761 9-231 limits assumed): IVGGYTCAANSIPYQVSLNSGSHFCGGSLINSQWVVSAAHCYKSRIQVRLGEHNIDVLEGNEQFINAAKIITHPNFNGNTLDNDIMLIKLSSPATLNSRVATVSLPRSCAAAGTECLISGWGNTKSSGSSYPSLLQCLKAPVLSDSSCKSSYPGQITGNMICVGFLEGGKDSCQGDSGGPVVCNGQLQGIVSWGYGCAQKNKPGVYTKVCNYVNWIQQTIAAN

apparent stoichiometry of inhibition (amidolysis of S2444, titration of trypsin activity): 1 mol inhibitor per mol enzyme
B1: ANV-KAPP (other)
chain: AQVLRGTVTDFPGFDERADAETLRKAMKGLGTDEESILTLLTSRSNAQRQEISAAFKTLFGRDLLDDLKSELTGKFEKLIVALMKPSRLYDAYELKHALKGAGTNEKVLTEIIASRTPEELRAIKQVYEEEYGSSLEDDVVGDTSGYYQRMLVVLLQANRDPDAGIDEAQVEQDAQALFQAGELKWGTDEEKFITIFGTRSVSHLRKVFDKYMTISGFQIEETIDRETSGNLEQLLLAVVKSIRSIPAYLAETLYYAMKGAGTDDHTLIRVMVSRSEIDLFNIRKEFRKNFATSLYSMIKGDTSGDYKKALLLLAGEDDEVCSEQAETGPCRAMISRWYFDVTEGKCAPFFYGGCGGNRNNFDTEEYCMAVCGSAI
